Measurements as given in PMC3646729, “Recruitment, Assembly, and Molecular Architecture of the SpoIIIE DNA Pump Revealed by Superresolution Microscopy” (PLoS Biology, 2013).

Molecular target: the molecule itself
Test: two-photon number and brightness analysis (N&B, fluorescence fluctuation microscopy); live B. subtilis cells with SpoIIIE-GFP; clusters at sporulation and division septa, after induction of sporulation or in exponential growth; brightness normalised to monomeric freely diffusing GFP; excitation at 930 nm, 50 raster scans

B1: SpoIIIE-GFP fusion (natural protein, B. subtilis, UniProt P21458 1-787, looked up)
chain: MAKKKRKSRKKQAKQLNIKYELNGLLCIAISIIAILQLGVVGQTFIYLFRFFAGEWFILCLLGLLVLGVSLFWKKKTPSLLTRRKAGLYCIIASILLLSHVQLFKNLTHKGSIESASVVRNTWELFLMDMNGSSASPDLGGGMIGALLFAASHFLFASTGSQIMAIVMILIGMILVTGRSLQETLKKWMSPIGRFIKEQWLAFIDDMKSFKSNMQSSKKTKAPSKKQKPARKKQQMEPEPPDEEGDYETVSPLIHSEPIISSFSDRNEEEESPVIEKRAEPVSKPLQDIQPETGDQETVSAPPMTFTELENKDYEMPSLDLLADPKHTGQQADKKNIYENARKLERTFQSFGVKAKVTQVHLGPAVTKYEVYPDVGVKVSKIVNLSDDLALALAAKDIRIEAPIPGKSAIGIEVPNAEVAMVSLKEVLESKLNDRPDAKLLIGLGRNISGEAVLAELNKMPHLLVAGATGSGKSVCVNGIITSILMRAKPHEVKMMMIDPKMVELNVYNGIPHLLAPVVTDPKKASQALKKVVNEMERRYELFSHTGTRNIEGYNDYIKRANNEEGAKQPELPYIVVIVDELADLMMVASSDVEDSITRLSQMARAAGIHLIIATQRPSVDVITGVIKANIPSRIAFSVSSQTDSRTILDMGGAEKLLGRGDMLFLPVGANKPVRVQGAFLSDDEVEKVVDHVITQQKAQYQEEMIPEETTETHSEVTDELYDEAVELIVGMQTASVSMLQRRFRIGYTRAARLIDAMEERGVVGPYEGSKPREVLLSKEKYDELSS
notes: SpoIIIE DNA translocase of Bacillus subtilis (strain PY79 derivative); the SpoIIIE gene was replaced by a SpoIIIE-GFP fusion, no wild-type copy left; The fusion is said to be fully functional, so it is probably the whole protein; also called SpoIIIE ATPase; SpoIIIE DNA translocase; source: B. subtilis PY79 derivative, SpoIIIE-GFP fusion under the endogenous promoter, in live cells
For B1, the “stoichiometry N” value was 6.
